{"source": "paper PMC5021521", "about": "“Coordinated recruitment of Spir actin nucleators and myosin V motors to Rab11 vesicle membranes” (eLife, 2016)", "molecules": {"B1": {"name": "398 714: C-terminal Spir-2 deletion mutant (protein)", "chain": "GSAQRPRPRVLLKAPTLAEMEEMNTSEEEESPCGEVTLKRDRSFSEHDLAQLRSEVASGLQSATHPPGGTEPPRPRAGSAHVWRPGSRDQGTCPASVSDPSHPLLSNRGSSGDRPEASMTPDAKHLWLEFSHPVESLALTVEEVMDVRRVLVKAEMEKFLQNKELFSSLKKGKICCCCRAKFPLFSWPPSCLFCKRAVCTSCSIKMKMPSKKFGHIPVYTLGFESPQRVSAAKTAPIQRRDIFQSLQGPQWQSVEEAFPHIYSHGCVLKDVCSECTSFVADVVRSSRKSVDVLNTTPRRSRQTQSLYIPNTRTLDFK", "modifications": "left off: Myc epitope, end not stated, kept", "notes": "C-terminal Spir-2 deletion mutant"}, "B2": {"name": "1 423: N-terminal Spir-2 deletion mutant (protein)", "chain": "ARAGSCGGAAAGAGRPEPWELSLEEVLKAYEQPLNEEQAWAVCFQGCRGLRGSPGRRLRDTGDLLLRGDGSVGAREPEAAEPATMVVPLASSEAQTVQSLGFAIYRALDWGLDESEERELSPQLERLIDLMANNDSEDSGCGAADEGYGGPEEEEEAEGVPRSVRTFAQAMRLCAARLTDPRGAQAHYQAVCRALFVETLELRAFLARVREAKEMLQKLREDEPHLETPRAELDSLGHTDWARLWVQLMRELRRGVKLKKVQEQEFNPLPTEFQLTPFEMLMQDIRARNYKLRKVMVDGDIPPRVKKDAHELILDFIRSRPPLKQVSERRLRPLPPKQRSLHEKILEEIKQERRLRPVRGEGWAARGFGSLPCILNACSGDAKSTSCINLSVTDAGGSAQRPRPRVLLKAPTLAEMEEMNTS", "modifications": "left off: Myc epitope, end not stated, kept", "notes": "N-terminal Spir-2 deletion mutant"}, "B3": {"name": "Myc-Spir2-SB-FYVE: Myc-hs-Spir2-SB-FYVE aa 438 - 714, lacks the MyoV binding motif (protein)", "chain": "DRSFSEHDLAQLRSEVASGLQSATHPPGGTEPPRPRAGSAHVWRPGSRDQGTCPASVSDPSHPLLSNRGSSGDRPEASMTPDAKHLWLEFSHPVESLALTVEEVMDVRRVLVKAEMEKFLQNKELFSSLKKGKICCCCRAKFPLFSWPPSCLFCKRAVCTSCSIKMKMPSKKFGHIPVYTLGFESPQRVSAAKTAPIQRRDIFQSLQGPQWQSVEEAFPHIYSHGCVLKDVCSECTSFVADVVRSSRKSVDVLNTTPRRSRQTQSLYIPNTRTLDFK", "modifications": "left off: Myc epitope, end not stated, kept"}}, "key": {"GST-Rab11a-Q70L": {"tested_on": "GST-Rab11a-Q70L", "assay": "GST-pulldown from HEK293 lysates", "type": "binding", "details": "N = 2; for pulldown by GST-Rab11a-Q70L in words, with Q1753R mutant MyoVa: HEK293 lysates with GFP-MyoVa-Q1753R in place of GFP-MyoVa-FL", "protocol": "HEK293 cells were co-transfected with expression vectors encoding Myc-Spir-2-FL, mStrawberry-FMN2-FH2-FSI, eGFP-MyoVa-D-FL and eGFP-MyoVa-D-Q1753R, respectively. 24 hr post transfection, cells were lysed in lysis buffer (25 mM Tris-HCl pH 7.4, 150 mM NaCl, 5 mM MgCl2, 10% (v/v) glycerol, 0.1% (v/v) Nonidet P-40, 1 mM PMSF, protease inhibitor cocktail) and centrifuged at 20,000 x g, 4°C, 20 min to remove insoluble debris. For GST-pulldown assays 65 µg GST-Rab11a-Q70L protein (25 µg GST control) was coupled to GSH-Sepharose 4B beads (1:1 suspension) for 1 hr, 4°C on a rotating wheel. Beads were washed twice with pulldown buffer (25 mM Tris-HCl pH 7.4, 150 mM NaCl, 5 mM MgCl2, 10% (v/v) glycerol, 0.1% (v/v) Nonidet P-40) and subsequently incubated with the cell lysates for 2 hr at 4°C on a rotating wheel. Beads were washed four times with pulldown buffer and bound proteins were eluted with 1x Laemmli buffer and denatured at 95°C for 10 min, then were analyzed by immunoblotting."}, "GFP-MyoVb-GTD": {"tested_on": "GFP-MyoVb-GTD", "assay": "Co-immunoprecipitation from HEK293 cells", "type": "binding, Homo sapiens", "details": "anti-Myc co-IP, HEK293, immunoblot", "protocol": "HEK293 cells were transfected with expression vectors encoding Myc-tagged Spir proteins and GFP-tagged myosin Va and myosin Vb fragments. 48 hr post transfection, cells were lysed in lysis buffer (25 mM Tris-HCl pH 7.4, 150 mM NaCl, 5 mM MgCl2, 10% (v/v) glycerol, 0.1% (v/v) Nonidet P-40, 1 mM Phenylmethylsulfonylfluorid (PMSF; Sigma-Aldrich), protease inhibitor cocktail (complete mini, EDTA-free; Roche, Penzberg, Germany)) and centrifuged at 20,000 x g, 4°C, 20 min to remove insoluble debris. The clarified supernatant was incubated with 4 µg anti-c-Myc antibody (9E10, mouse monoclonal; Santa Cruz Biotechnology; RRID: AB_627268) for 1 hr on ice. Subsequently, 40 µl Protein G-Agarose beads (1:1 suspension; Roche) were added and incubated for 2 hr at 4°C on a rotating wheel. Beads were washed with pulldown buffer (25 mM Tris-HCl pH 7.4, 150 mM NaCl, 5 mM MgCl2, 10% (v/v) glycerol, 0.1% (v/v) Nonidet P-40). Bound proteins were eluted with 1x Laemmli buffer and denatured for 10 min at 95°C, then analyzed by immunoblotting."}, "mStrawberry-Rab11a": {"tested_on": "mStrawberry-Rab11a", "assay": "Colocalization with Rab11 in HeLa cells, Pearson's correlation coefficient", "type": "cell-based, Mus musculus", "protocol": "HeLa cells were seeded on microscope cover glasses and transfected with Myc-epitope-tagged Spir-2 proteins and fluorescently-tagged MyoV and Rab11 proteins as described above. Cells were fixed with paraformaldehyde (3.7% in 1x PBS) for 20 min at 4°C and subsequently permeabilized using 0.2% Triton X-100 (in 1x PBS) for 3.5 min, room temperature. Cells were incubated with anti-c-Myc antibody (9E10, mouse monoclonal, 2 µg/ml, Santa Cruz Biotechnology; RRID: AB_627268) for 1 hr at room temperature and conjugated anti-mouse secondary antibodies (Cy5; from donkey, 3.25 µg/ml, Dianova (RRID: AB_2340820) and TRITC; from donkey, 3.125 µg/ml, Dianova (RRID: AB_2340767)) for 1 hr at room temperature avoiding exposure to light. Finally, cells were mounted on microscope slides with Mowiol and analyzed with a Leica AF6000LX fluorescence microscope, equipped with a Leica HCX PL APO 63x/1.3 GLYC objective and a Leica DFC350 FX digital camera (1392 × 1040 pixels, 6.45 × 6.45 µm pixel size). 3D stacks were recorded and processed with the Leica deconvolution software module. In case of the MyoVa autoregulation/activation experiments, we quantified the MyoVa expression levels. […] In order to clearly distinguish between vesicular and cytoplasmic MyoVa localization, we imaged either high or low expressing cells and determined the sum of pixel gray values per cell as a measure for the MyoVa expression levels. Based on that, we only used cells for the autoregulation analysis having a sum of pixel gray values less than 20 × 10^6 for the expression of GFP-MyoVa-D-FL. Images were recorded using the Leica LASX software and further processed with Adobe Photoshop and subsequently assembled with Adobe Illustrator.\nThe extent of colocalization of Rab11, Spir-2 and MyoVa was analyzed using the ImageJ (V2.0.0) plug-in Coloc 2. Here, the colocalization rate is indicated by the Pearson’s Correlation Coefficient (PCC) as a statistical measure to unravel a linear correlation between the intensity of different fluorescent signals. […] To take the noise of each image into account and to gain an objective evaluation of PCC significance, a Costes significance test was performed. Therefore, the pixels in one image were scrambled randomly and the correlation with the other (unscrambled) image was measured. […] Statistical data analysis was performed using SPSS 22 (IBM, Armonk, NY, USA)."}}, "data": [{"molecule": "GFP-MyoVa-Q1753R: eGFP-tagged full-length MyoVa with Q1753R mutation, which disrupts interaction with Rab11", "values": [{"measurement": "pulldown by GST-Rab11a-Q70L in words, with Q1753R mutant MyoVa", "setting": "GST-Rab11a-Q70L", "result": "but not the GFP-MyoVa-Q1753R mutant"}]}, {"molecule": "Straw-FMN2-FH2-FSI: mStrawberry-tagged C-terminal formin-2, aa 1135 - 1578", "values": [{"measurement": "pulldown by GST-Rab11a-Q70L in words", "setting": "GST-Rab11a-Q70L; HEK293 lysates over-expressing Myc-Spir-2, Straw-FMN2-FH2-FSI and GFP-MyoVa-FL", "result": "able to pull down"}, {"measurement": "pulldown by GST-Rab11a-Q70L in words, with Q1753R mutant MyoVa", "setting": "GST-Rab11a-Q70L", "result": "Only faint"}]}, {"molecule": "B1", "values": [{"measurement": "co-precipitation / interaction with MyoVb-GTD in words", "setting": "GFP-MyoVb-GTD", "result": "show myosin V co-precipitation"}]}, {"molecule": "B2", "values": [{"measurement": "co-precipitation / interaction with MyoVb-GTD in words", "setting": "GFP-MyoVb-GTD", "result": "show myosin V co-precipitation"}]}, {"molecule": "B3", "values": [{"measurement": "PCC", "setting": "mStrawberry-Rab11a; GFP-MyoVa-CC-GTD + mStraw-Rab11 + Myc-Spir2-SB-FYVE (first block, r34), cell 1", "result": 0.63}, {"measurement": "PCC", "setting": "mStrawberry-Rab11a; GFP-MyoVa-CC-GTD + mStraw-Rab11 + Myc-Spir2-SB-FYVE (first block, r34), cell 2", "result": 0.74}, {"measurement": "PCC", "setting": "mStrawberry-Rab11a; GFP-MyoVa-CC-GTD + mStraw-Rab11 + Myc-Spir2-SB-FYVE (first block, r34), cell 3", "result": 0.59}, {"measurement": "PCC", "setting": "mStrawberry-Rab11a; GFP-MyoVa-CC-GTD + mStraw-Rab11 + Myc-Spir2-SB-FYVE (first block, r34), cell 4", "result": 0.23}, {"measurement": "Pearson's correlation coefficient (PCC), mean", "setting": "mStrawberry-Rab11a; GFP-MyoVa-CC-GTD + mStraw-Rab11 + Myc-Spir2-SB-FYVE (first block, r34), mean of 4 cells", "result": 0.5475}, {"measurement": "colocalization with Rab11 in words", "setting": "mStrawberry-Rab11a; co-expression of Spir-2-SB-FYVE, MyoVa-CC-GTD and Rab11a, HeLa cells", "result": "significant reduction"}]}]}
